From PMC12629992

Target: native myeloperoxidase monomer (one heavy and one light chain) (human) (UniProt P05164)
Experiment: mass photometry; native MPO 100 nM in 20 mM HEPES pH 7.5, 200 mM NaCl, without or with 10 or 50 mM DTT, diluted 1:10 before measuring; dimer to monomers

## native myeloperoxidase monomer (one heavy and one light chain) (from UniProt P05164 279-745) (enzyme)
  stoichiometry N: 2
